Three molecules from patent publication US20100280227A1 (Genentech, published 2010) can be followed below.

Experiment [1] addresses T1, human BR3 expressed on cells (human, UniProt Q96RJ3 1-184).
T1 construct: whole, on cells; also called BR3 on BJAB cells; cell surface BR3
Description: BJAB cell direct binding assay, anti-mouse IgG Fc-HRP.
Description: For binding assays, cells were washed with cold assay buffer (phosphate buffered saline (PBS), pH 7.4) containing 1% fetal bovine serum (FBS)). […] The plates containing the cells were centrifuged at 1200 rpm for 5 min at 4° C., and the supernatant was carefully aspirated away from the cell pellets. […] For these experiments, full length antibodies (IgG) were used.
(§1) Direct and competitive binding assays were performed as follows. For the direct binding assay, IgG antibody samples were serially diluted in cold assay buffer to concentrations ranging between 300-0.02 nM. Samples (100 μl) were added to the pelleted cells, and the plates were incubated for 45 min on ice. An additional 100 μl assay buffer was then added to each well, and the plates were centrifuged at 1200 rpm for 5 min at 4° C. After carefully aspirating the supernatant, the cells were washed two additional times with 200 μl assay buffer. An anti-mouse IgG Fc-HRP or goat anti-human IgG Fc-HRP, as appropriate, was diluted 1/10,000 in cold assay buffer was added (100 μl/well, Jackson ImmunoResearch, West Grove, Pa.), and the plates were incubated on ice for 45 min. Following two washes with 200 μl cold assay buffer, tetramethyl benzidine (TMB, Kirkegaard & Perry Laboratories, Gaithersburg, Md.) was added, and color was allowed to develop for 10 min. One hundred microliters 1 M H₃PO₄ was added to stop the reaction. The plates were then read on a microplate reader at 450 nm with a 620 nm reference. In the direct binding assay, the indicated concentrations of mAbs were added to BJAB cells and bound mAb was detected.

The target of experiment [2] is T2, human BAFF (residues 82-285) (human, UniProt Q9Y275 82-285).
T2 construct: range 82-285; also called biotin-BAFF; biotinylated BAFF
T2 sequence (Q9Y275 82-285 limits assumed): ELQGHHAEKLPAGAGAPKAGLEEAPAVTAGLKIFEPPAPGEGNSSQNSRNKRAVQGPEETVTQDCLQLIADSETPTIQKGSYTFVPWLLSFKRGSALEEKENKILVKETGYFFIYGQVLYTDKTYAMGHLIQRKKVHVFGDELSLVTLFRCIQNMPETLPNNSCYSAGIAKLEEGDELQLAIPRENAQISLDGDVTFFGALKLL
Description: BJAB cell competitive binding assay: soluble BR3-Fc keeps biotin-BAFF from BR3 on the cells.

Experiment [3] addresses T1, human BR3 expressed on cells. Description: BJAB cells, direct binding.
Description: as §1
Experiment [4] has the same target. The experiment in a line: BJAB cells, competition with biotin-BAFF.
Description: (§2) The diluted samples were added to the pelleted BJAB cells in 96 well plates as described above. After 45 min incubation on ice, the cells were washed twice with 200 μl cold assay buffer, and streptavidin-HRP (AMDEX, Amersham Biosciences, Piscataway, N.J.) diluted 1/5,000 in assay buffer was added (100 μl/well). The plates were incubated for a final 45 min on ice. After washing twice with cold assay buffer, color was developed using TMB, the reaction was stopped with H₃PO₄, and the plates were read as described above.
Experiment [5] concerns the target T3, variant human BR3-Fc fusion.
T3 construct: produced in CHO cells; also called vBR3-Fc; vhBR3-Fc
Description: competition ELISA on vhBR3-Fc against biotinylated 11G9. (In general: ELISA stands for enzyme-linked immunosorbent assay.)

Experiment [6] has as its target T4, human BR3 displayed on phage, T17 alanine-scan mutant (human, UniProt Q96RJ3 1-61, limits assumed).
T4 construct: One position of the shotgun alanine scan of BR3 on phage; the F value gives the effect of this change against wild type; See m1 for the parent
Description: shotgun alanine scan of phage-displayed BR3; F against wild type.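 Further: Phage-displayed BR3 shotgun alanine libraries, two selection rounds for anti-BR3 antibody binding, normalized to a display selection, F above 1 marks a harmful substitution, below 1 a beneficial one.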
Description: (§3) At the sites of mutation, wild-type codons were replaced with the corresponding shotgun alanine codon (Weiss, supra). […] Library 1 encoded shotgun codons at positions 17, 18, 20-23, 25, 27, 28, 30, and 33, while library 2 encoded shotgun codons at positions 26, 29, 31, 34, and 36-42. Each library contained 2×10⁹ members, allowing for complete representation of the theoretical diversity (>10⁴-fold excess).
(§4) The display selection was included in order to normalize the anti-BR3 antibody-binding selection for expression differences between library members. Phage eluted from each target were propagated in E. coli XL 1-blue; amplified phage were used for selection against the same target as in the previous round. After two rounds of selection, 48 individual clones from each library and selection were grown in a 96-well format in 400 L of 2YT medium supplemented with carbenicillin and KO7 helper phage.
(§5) F-values were calculated as previously described (Weiss, supra; Gordon, supra). […] Deleterious mutations have ratios >1, while advantageous mutations have ratios <1; boldface indicates a >10-fold effect.

In experiment [7] the target is T5, human BR3 displayed on phage, L28 alanine-scan mutant (human, UniProt Q96RJ3 1-61, limits assumed).
T5 construct: One position of the shotgun alanine scan of BR3 on phage
The experiment is described as above.
Description: as §3, §4, §5

Experiment [8] deals with T6, human BR3 displayed on phage, V29 alanine-scan mutant (human, UniProt Q96RJ3 1-61, limits assumed).
T6 construct: One position of the shotgun alanine scan of BR3 on phage
Described as above.
Description: as §3, §4, §5

Experiment [9] concerns the target T7, human BR3 displayed on phage, R30 alanine-scan mutant (human, UniProt Q96RJ3 1-61, limits assumed).
T7 construct: One position of the shotgun alanine scan of BR3 on phage
The description is as above.
Description: as §3, §4, §5

Experiment [10] concerns the target T8, human BR3 displayed on phage, H31 alanine-scan mutant (human, UniProt Q96RJ3 1-61, limits assumed).
T8 construct: One position of the shotgun alanine scan of BR3 on phage
The description is as above.
Description: as §3, §4, §5

The target in experiment [11] is T9, human BR3 displayed on phage, V33 alanine-scan mutant (human, UniProt Q96RJ3 1-61, limits assumed).
T9 construct: One position of the shotgun alanine scan of BR3 on phage
The experiment is described as above.
Description: as §3, §4, §5

Experiment [12] addresses human BR3 displayed on phage, mutated at A34 in the alanine scan (human, UniProt Q96RJ3 1-61, limits assumed). The description is as above.
Description: as §3, §4, §5
The target in experiment [13] is T10, human BR3 displayed on phage, G36 alanine-scan mutant (human, UniProt Q96RJ3 1-61, limits assumed).
T10 construct: One position of the shotgun alanine scan of BR3 on phage
The experiment is described as above.
Description: as §3, §4, §5

In experiment [14] the target is T11, human BR3 displayed on phage, L37 alanine-scan mutant (human, UniProt Q96RJ3 1-61, limits assumed).
T11 construct: One position of the shotgun alanine scan of BR3 on phage
The description is as above.
Description: as §3, §4, §5

For experiment [15], the target named is T12, human BR3 displayed on phage, L38 alanine-scan mutant (human, UniProt Q96RJ3 1-61, limits assumed).
T12 construct: One position of the shotgun alanine scan of BR3 on phage
The experiment is described as above.
Description: as §3, §4, §5

In experiment [16] the target is T13, human BR3 displayed on phage, R39 alanine-scan mutant (human, UniProt Q96RJ3 1-61, limits assumed).
T13 construct: One position of the shotgun alanine scan of BR3 on phage
Described as above.
Description: as §3, §4, §5

Experiment [17] deals with T14, human BR3 displayed on phage, P18 alanine-scan mutant (human, UniProt Q96RJ3 1-61, limits assumed).
T14 construct: One position of the shotgun alanine scan of BR3 on phage
The description is as above.
Description: as §3, §4, §5

Experiment [18] concerns the target T15, human BR3 displayed on phage, T40 alanine-scan mutant (human, UniProt Q96RJ3 1-61, limits assumed).
T15 construct: One position of the shotgun alanine scan of BR3 on phage
Described as above.
Description: as §3, §4, §5

Experiment [19] has as its target T16, human BR3 displayed on phage, P41 alanine-scan mutant (human, UniProt Q96RJ3 1-61, limits assumed).
T16 construct: One position of the shotgun alanine scan of BR3 on phage
The experiment is described as above.
Description: as §3, §4, §5

The target in experiment [20] is T17, human BR3 displayed on phage, R42 alanine-scan mutant (human, UniProt Q96RJ3 1-61, limits assumed).
T17 construct: One position of the shotgun alanine scan of BR3 on phage
Described as above.
Description: as §3, §4, §5

Experiment [21] deals with T18, human BR3 displayed on phage, V20 alanine-scan mutant (human, UniProt Q96RJ3 1-61, limits assumed).
T18 construct: One position of the shotgun alanine scan of BR3 on phage
Described as above.
Description: as §3, §4, §5

Experiment [22] deals with T19, human BR3 displayed on phage, P21 alanine-scan mutant (human, UniProt Q96RJ3 1-61, limits assumed).
T19 construct: One position of the shotgun alanine scan of BR3 on phage
The experiment is described as above.
Description: as §3, §4, §5

The target in experiment [23] is T20, human BR3 displayed on phage, E23 alanine-scan mutant (human, UniProt Q96RJ3 1-61, limits assumed).
T20 construct: One position of the shotgun alanine scan of BR3 on phage
The description is as above.
Description: as §3, §4, §5

The target in experiment [24] is T21, human BR3 displayed on phage, F25 alanine-scan mutant (human, UniProt Q96RJ3 1-61, limits assumed).
T21 construct: One position of the shotgun alanine scan of BR3 on phage
Described as above.
Description: as §3, §4, §5

Experiment [25] deals with T22, human BR3 displayed on phage, D26 alanine-scan mutant (human, UniProt Q96RJ3 1-61, limits assumed).
T22 construct: One position of the shotgun alanine scan of BR3 on phage
The description is as above.
Description: as §3, §4, §5

Experiment [26] concerns the target T23, human BR3 displayed on phage, L27 alanine-scan mutant (human, UniProt Q96RJ3 1-61, limits assumed).
T23 construct: One position of the shotgun alanine scan of BR3 on phage
The experiment is described as above.
Description: as §3, §4, §5

The target in experiment [27] is T1, human BR3 expressed on cells. The experiment in a line: BJAB cell competitive binding assay against biotin-BAFF.
Description: BJAB cells, a human Burkitt lymphoma cell line, were cultured in RPMI media supplemented with 10% FBS, penicillin (100 U/ml, Gibco-Invitrogen, Carlsbad, Calif.), streptomycin (100 μg/ml, Gibco), and L-glutamine (10 mM). […] For binding assays, cells were washed with cold assay buffer (phosphate buffered saline (PBS), pH 7.4) containing 1% fetal bovine serum (FBS)). […] The plates containing the cells were centrifuged at 1200 rpm for 5 min at 4° C., and the supernatant was carefully aspirated away from the cell pellets. […] For these experiments, full length antibodies (IgG) were used.
as §2
Experiment [28] deals with T3, variant human BR3-Fc fusion. Description: SPR, vBR3-Fc on chip. (In SPR one partner is held on a chip, and binding of the other changes the refractive index at the surface.)
Experiment [29] shares this target. The experiment in a line: competition ELISA on vhBR3-Fc against biotinylated 9.1.
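Wherever Kd is given: Anti-BR3 antibodies passed over chip-bound BR3-Fc in PBS with 0.05% polysorbate 20, on and off rates fitted together globally to a 1:1 binding model.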

B1: mouse BR3-Fc (Fc fusion)
chain: STGARRLRVRSQRSRDSSVPTQCNQTECFDPLVRNCVSCELFHTPDTGHTSSLEPGTALQPQEGQVTGDKKIVPRDCGCKPCICTVPEVSSVFIFPPKPKDVLTITLTPKVTCVVVDISKDDPEVQFSWFVDDVEVHTAQTQPREEQFNSTFRSVSELPIMHQDWLNGKEFKCRVNSAAFPAPIEKTISKTKGRPKAPQVYTIPPPKEQMAKDKVSLTCMITDFFPEDITVEWQWNGQPAENYKNTQPIMNTNGSYFVYSKLNVQKSNWEAGNTFTCSVLHEGLHNHHTEKSLSHSPGK
notes: (BR3 ECD fused to a murine Fc); also called mBR3-Fc; murine BR3-Fc
By IC50 is commonly meant the concentration at which inhibition is half-maximal. A low value points to inhibition by little substance. B1: the binding result in experiment [1] is “no binding (tested: about 35 ng/ml as the axis is labelled)”. Also, the IC50 in [2] turned out to be 12.7 nM.

B2: murine monoclonal antibody 11G9 (antibody, V domains shown)
VH: DVQLQESGPSLVKPSQTLSLTCSVTGDSITSGYWNWIRKFPGNKLEYMGYISYSGSTYYNPSLKSRISITRDTSKNQFYLQLLSVTTEDTATYYCAGLDGLYWYFDVWGAGTLVTVSS
VL: DIVMTQTPLSLPVSLGDQASISCRSSQSLVHSNGNTYLHWYLQKPGQSPKLLIYKVSNRFSGVPDRFSGSGSGTDFTLKISRVEAEDLGVYFCSQSTHVPPFTFGSGT
notes: mouse hybridoma IgG; also called mu11G9
As usually defined, the EC50 is the concentration at which the effect is half-maximal. For B2, the EC50 in [3] amounted to 0.19 nM; in [1] it was 0.17 nM. The IC50 in [4] was determined as 0.38 nM; in experiment [27] it was 0.29 nM. For the same molecule, in experiment [5], the “IC50 (read off the curve)” value was approximately 0.2 µg/mL. Moreover, the F value in experiment [6] was determined as 0.5; in [7], 0.4; in experiment [8], 1; in [9], 1.7; in experiment [10] it was 2.8; in experiment [11], 24. Moreover, the F value turned out to be 32 in experiment [12]; 1.8 in experiment [13]; 0.7 in experiment [14]; 0.9 in [15]; 3.1 in experiment [16]; 0.5 in experiment [17]. Further, the F value in [18] was found to be 0.5; in experiment [19], 1.7; in experiment [20], 0.9; in [21], 1.1; in [22] it was 40; in experiment [23], 6.9. The figures for the F value in [24], in experiment [25] and in [26] were 38, 8.5 and 1.1, respectively.

B3: murine monoclonal antibody 9.1 (antibody, V domains shown)
VH: EVKLVESGGGLVQPGGSLRLSCAISGFTVTAYYMSWVRQPPGKALEWLGFIRDKANGYTTEYNPSVKGRFTISRDNSQSIFYLQMNTLRAEDSATYYCAQVRRALDYWGQGTTVTVSA
VL: DIVMSQSPSSLAVSVGEKVTMSCKSSQSLLYSSNQNNYLAWYQQKPGQSPKLLIYWASTRESGVPDRFTGSGSGTDFTLTISSVKAEDLAVYYCQQYYTYPYTFGGGT
notes: mouse hybridoma IgG; also called 9.1 IgG; mu9.1
A word on the Kd: it is a measure of binding affinity in units of concentration. A high value points to weaker binding. In turn, B3 showed a Kd in experiment [28] of 0.61 nM. Besides, the EC50 amounted to 0.54 nM in experiment [3] and 0.46 nM in experiment [1]. Besides, the half-maximal inhibitory concentration (IC50) in experiment [4] stood at 1.3 nM; in experiment [27] it was 0.86 nM. For the same molecule, the “IC50 (read off the curve)” value was approximately 0.6 µg/mL in experiment [29] and approximately 0.1 µg/mL in experiment [5].
